Results on four molecules are retold here after patent US20210347873A1 (SHANGHAI PHARMAEXPLORER, published 2021).

Test [1] has as its target T1, human APRIL protein (human, UniProt O75888 105-250, limits assumed).
T1 construct: Bought protein; also called recombinant APRIL protein
T1 sequence (looked up): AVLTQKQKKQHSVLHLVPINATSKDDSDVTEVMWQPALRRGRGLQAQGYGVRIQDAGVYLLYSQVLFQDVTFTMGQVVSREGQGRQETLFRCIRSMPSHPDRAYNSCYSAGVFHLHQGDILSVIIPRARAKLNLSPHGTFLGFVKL
Briefly: ELISA, coated APRIL; antibody 66.7 nM. How it is done: (§1) To test whether the BLyS antibody cross-reacted with human APRIL protein, APRIL protein (purchased from R & D Systems) was first diluted to a final concentration of 1.0 μg/mL with PBS, and then 50 μL of which per well was aliquoted into a 96-well ELISA plate, and the plate was subsequently sealed with plastic film and incubated at 4° C. overnight. On the next day the plate was rinsed four times with the plate washing buffer [PBS buffer containing 0.0500 (v/v) Tween20] and a blocking solution [PBS buffer containing 0.05 (v/v) Tween20 and 1 (w/w) BSA] was added, then the protein was blocked at 37° C. for 2 hours. The blocking solution was removed and 100 μL per well of the lead antibodies prepared in Embodiment 1 and 2 were added in. After incubation for 1 hour at 37° C., the plate was rinsed four times with the plate washing buffer [PBS buffer containing 0.05 (v/v) Tween20]. HRP-labeled (horseradish peroxidase) secondary antibody (purchased from Sigma) was added in and incubated at 37° C. for 1 hour. The plate was then rinsed four times with the plate washing buffer [PBS buffer containing 0.050 (v/v) Tween20]. 100 μL of TMB substrate was aliquoted into each well and after incubation at room temperature for 5 minutes, 100 μL of stop solution (1.0 N HCl) was aliquoted into each well. A₄₅₀ₙₘ values were read via an ELISA plate reader (SpectraMax M5e purchased from Molecular Devices) and the results were shown in FIGS. 6A-6B and Table 11. […] As used herein, the IgG control is human IgG and the data in the table is GD number at 450 nm.
In general terms: ELISA stands for enzyme-linked immunosorbent assay.

The target in test [2] is T1, human APRIL protein. As to the kind of experiment: ELISA, coated APRIL; antibody 0 nM (blank). As for the experimental part:
as §1

Test [3] has as its target T1, human APRIL protein. As to the kind of experiment: ELISA, coated APRIL; antibody 0.0213 nM. As for the experimental part: as §1
Test [4] has as its target T1, human APRIL protein. As to the kind of experiment: ELISA, coated APRIL; antibody 2.67 nM. How it is done:
as §1

Test [5] addresses T1, human APRIL protein. Briefly: ELISA: APRIL coated at 1.0 µg/mL, antibody titrated, HRP secondary antibody. How it is done:
as §1

Test [6] concerns the target T1, human APRIL protein. As to the kind of experiment: ELISA, coated APRIL; antibody 13.3 nM. As for the experimental part:
as §1

For test [7], the target named is T1, human APRIL protein. Briefly: ELISA, coated APRIL; antibody 0.534 nM. As for the experimental part: as §1
The target in test [8] is T2, cynomolgus BLyS (full length, arginine 132 mutated to histidine) on CHO-K1 cells (cynomolgus, UniProt Q9Y275 1-285 (human entry)).
T2 construct: also called cyno BLyS; CHO-K1 cynoBLyS
T2 chain: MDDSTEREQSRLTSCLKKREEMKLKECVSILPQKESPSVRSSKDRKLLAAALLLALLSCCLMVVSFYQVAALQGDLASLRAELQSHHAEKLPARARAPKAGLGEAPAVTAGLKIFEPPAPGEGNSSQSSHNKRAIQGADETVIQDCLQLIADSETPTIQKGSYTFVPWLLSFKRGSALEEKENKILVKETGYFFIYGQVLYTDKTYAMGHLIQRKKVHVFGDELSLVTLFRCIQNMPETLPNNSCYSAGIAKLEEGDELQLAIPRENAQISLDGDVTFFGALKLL
Briefly: flow cytometry (FACS) on CHO-K1 cynoBLyS cells, Alexa 488 secondary antibody. As for the experimental part:
(§2) The medium was aspirated completely, and the cells were rinsed once with PBS buffer (purchased from Invitrogen) and then treated with cell dispersion solution (TrypLE™ Express Enzyme, purchased from Life technology) and collected. The detailed steps are as follows: the cells were rinsed once with PBS buffer, after counting, the cells were diluted to 2×10⁶ cells/ml with PBS buffer, blocked with 2% (w/w) fetal bovine serum and incubated on ice for 30 minutes. 200 μL of which per well was aliquoted into a 96-well FACS plate and centrifuged at 2000 rpm at 4° C., then each 100 μL of the lead antibodies obtained from Embodiment 1 and 2 were aliquoted into each well and incubated on ice for 1 hour. […] After centrifuged and rinsed 3 times with FACS buffer, cells were suspended with 200 μL of FACS buffer and the results were detected and analyzed by FACS (FACS Calibur, purchased from BD). It was shown in Tables 12-13 that the lead antibody could bind to human BLyS protein on the cell surface and the lead antibody could cross-react with cynomolgus BLyS. The data in the table is MFI, the average fluorescence intensity of the cell population.

The target in test [9] is T1, human APRIL protein. As to the kind of experiment: ELISA, coated APRIL; antibody 0.00427 nM. As for the experimental part:
as §1

Test [10] deals with T1, human APRIL protein. As to the kind of experiment: ELISA, coated APRIL; antibody 0.107 nM. As for the experimental part: as §1
The target of test [11] is T3, human BLyS (full length, arginine 132 mutated to histidine) on CHO-K1 cells (human, UniProt Q9Y275 1-285).
T3 construct: also called hBLyS; CHO-K1 hBLyS
T3 sequence (Q9Y275 other isoform, or with tags, fused parts or gaps limits assumed, change not shown): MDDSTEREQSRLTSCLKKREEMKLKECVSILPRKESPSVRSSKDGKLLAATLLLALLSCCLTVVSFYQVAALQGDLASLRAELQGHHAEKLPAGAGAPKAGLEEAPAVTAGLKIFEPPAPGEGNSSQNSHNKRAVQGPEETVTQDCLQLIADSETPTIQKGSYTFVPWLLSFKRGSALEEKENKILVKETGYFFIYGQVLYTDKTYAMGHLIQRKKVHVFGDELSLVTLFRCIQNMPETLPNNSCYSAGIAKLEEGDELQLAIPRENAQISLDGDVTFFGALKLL
Briefly: flow cytometry (FACS) on CHO-K1 hBLyS cells, Alexa 488 secondary antibody. As for the experimental part:
as §2
On the technique in general: In flow cytometry, cells or beads pass a laser one at a time.

In general, EC50 (read off the curve) refers to the concentration giving half of the maximal effect. Read a low EC50 (read off the curve) as a more potent agent.

B1: 35E6F7C3 (antibody, V domains shown)
VH: EVQLQQSGAELVKPGASVKLSCTAAGFNIQDTYIHWVKQRPEQGLEWIGRIDPANANTVYDPKFQGKATITADTSSNTAYLQVSSLTSEDTAVYYCASPVITAGFAYWGQGTLVTVSA
VL: QIVLTQSPAIMSASPGEKVTMTCGASSSVNYVHWYQQKSGTSPKRWIYDTSKLASGVPARFSGSGSGTSYSLTISSMEAEDAATYYCQQWTRSPLTFGAGTKVELK
notes: Mouse hybridoma antibody purified on Protein G
B1: the OD450 nm worked out at 0.0703 in the test with human APRIL protein [1]; 0.0542 in the test with human APRIL protein [2]; 0.0532 with human APRIL protein [3]; 0.0561 with human APRIL protein [4]; 0.0567 with human APRIL protein [6]; 0.0544 with human APRIL protein [7]. The OD450 nm in the test with human APRIL protein [9] came out at 0.0553; in the test with human APRIL protein [10], 0.0537. In addition, the binding result in the test with human APRIL protein [5] is “no binding (tested: 66.7 nM)”. Also, in [8], the “EC50 (read off the curve)” value is approximately 700 pM.

B2: 78C11D2D12 (antibody, V domains shown)
VH: QVQLQQSGAELVRPGTSVKISCKASGYAFTNYWLGWVKQRPGHGLEWIGDIYPGSGNTYYNEKFKGKATLTADKSSSTAYMQLSSLTSEDSAVFFCAAYLYAMDYWGQGTSVTVSS
VL: QIVLTQSPAIMSASPGEKVTITCSASSSVSYMHWFQQKPGTSPKLWIYSASNLASGVPARFSGSGSGTSYSLTISRMEAEDAATYYCQQRGSYPFTFGSGTKLEIK
notes: as for B1
Consider B2, for which the OD450 nm with human APRIL protein [1] came out at 0.138; with human APRIL protein [2], 0.0565; with human APRIL protein [3] it was 0.0534; with human APRIL protein [4], 0.0613; with human APRIL protein [6], 0.0703; with human APRIL protein [7], 0.0553. The OD450 nm with human APRIL protein [9] was 0.0564; with human APRIL protein [10], 0.0549. The binding result with human APRIL protein [5] is recorded as “no binding (tested: 66.7 nM)”. The “EC50 (read off the curve)” value in [8] and in test [11] was approximately 200 pM each time.

B3: 89A2G5E7 (antibody, V domains shown)
VH: QVQLKESGPGLVAPSQSLSITCTVSGLSLNSHDISWIRQPPGKGLEWLGVIWSGGGTKYNSAFMSRLSISKDNSKSQVFLKMNSLHTDDTAIYYCVRTPSMITYSAMDYWGQGTSVTVSS
VL: EIVLTQSPALMAASPGEKVTITCSVSSSISSRNLHWYQQKSQTSPKAWIHATSNLASGVPVRFSGSGSGTSYSLTISSMEAEDAATYYCQQWSSYPLTFGSGTKLEIK
notes: as for B1
As for B3, the OD450 nm was 0.196 in the test with human APRIL protein [1]; 0.0655 in the test with human APRIL protein [2]; 0.0547 with human APRIL protein [3]; 0.0614 with human APRIL protein [4]; 0.0973 with human APRIL protein [6]; 0.0565 in the test with human APRIL protein [7]. The OD450 nm with human APRIL protein [9] turned out to be 0.0578; with human APRIL protein [10] it was 0.0548. In the test with human APRIL protein [5], the binding result is given as “no binding (tested: 66.7 nM)”. In addition, the concentration giving a half-maximal response (EC50 (read off the curve)) in [8] and in test [11] was approximately 700 pM in each case.

B4: 2-1G11 (antibody, human IgG1, V domains shown)
VH: EVQLVESRGGVVQPGRSLRLSCAASGFTFSSYGMHWVRQAPGKGLEWVAVISYDGSNKYYADSVKGRFTISRDNSKNTLYLQMNSLRAEDAAVYYCARDRVDILTGYSIYGMDVWGQGTTVTVSS
VL: EIVMTQSPATLSLSPGERATLSCRASQSVSSYLAWYQQKPGQAPRLLIYDASKRATGIPARFSGSGSGTDFTLTISSLEPEDFAVYYCQQRSNWPLTFGGGTKVEIK
As to B4, the OD450 nm with human APRIL protein [1] stood at 0.296; in the test with human APRIL protein [2], 0.0847; in the test with human APRIL protein [3], 0.0733; with human APRIL protein [4] it was 0.0901; with human APRIL protein [6], 0.137; in the test with human APRIL protein [7], 0.0668. The OD450 nm with human APRIL protein [9] was found to be 0.107; in the test with human APRIL protein [10], 0.0699. Besides, the binding result with human APRIL protein [5] is recorded as “no binding (tested: 66.7 nM)”. Further, the “EC50 (read off the curve)” value in test [8] was approximately 100 pM; in test [11], approximately 90 pM.
